The numbers were not newly measured in publication PMC4926285, which cites them from elsewhere.

The target of the data set is insulin receptor (site 1) site 1 (L1 and carboxy-terminal α-chain) (Homo sapiens) (UniProt P06213).
Chain of UniProt P06213 (P06213 28-182): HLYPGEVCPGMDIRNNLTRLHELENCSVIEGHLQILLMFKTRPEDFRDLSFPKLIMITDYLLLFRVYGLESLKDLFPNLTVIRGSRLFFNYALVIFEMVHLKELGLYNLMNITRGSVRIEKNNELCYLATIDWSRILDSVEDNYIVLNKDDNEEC

Chain of insulin (P01308 90-110): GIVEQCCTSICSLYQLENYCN

The term Kd denotes the equilibrium constant for the complex coming apart. In the case of insulin (from UniProt P01308), the Kd was 6.4 nM.
